From patent publication US20200164020A1

Target: IFNβ in spent medium of HEp-2 cells transfected with siPUM1 (UniProt P01574)
Test: cell-based or functional assay

UniProt P01574, sequence (P01574 22-187 limits assumed): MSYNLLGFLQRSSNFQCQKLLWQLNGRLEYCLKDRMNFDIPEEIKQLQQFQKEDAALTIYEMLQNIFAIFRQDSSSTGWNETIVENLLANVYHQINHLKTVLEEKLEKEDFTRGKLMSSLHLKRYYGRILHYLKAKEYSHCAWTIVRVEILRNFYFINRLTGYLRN

## anti-IFNβ antibody (R&D Systems, MAB814-100)
  accumulation of HSV-1 viral proteins (immunoblot) in HEp-2 cells exposed to siPUM1 spent medium pre-incubated with antibody, IFN neutralization assay: 2 to 4 fold
